# Results taken from patent US20070238184A1, “Amyloid beta protein channel structure and uses thereof in identifying potential drug molecules for neurodegenerative diseases” (The Regents of the University of California, priority 2005, published 2007).
# B1: SAA: human apo-serum amyloid A purchased from PeproTech (protein, UniProt P0DJI8 19-122, looked up)
# Serum amyloid A-1 protein: RSFFSFLGEAFDGARDMWRAYSDMREANYIGSDKYFHARGNYDAAKRGPGGAWAAEVITDARENIQRFFGHGAEDSLADQAANEWGRSGKDPNHFRPAGLPEKY
# Experiment: Single-channel current recording in planar phospholipid bilayer membranes
# Details: voltage clamp, peptide added to one side, pH 7.4
# Method: Planar phospholipid bilayer membranes were formed as described by Mirzabekov et al. (1999) Meth. Enzymol. 294: 61-74. A bubble of lipid dissolved in heptane was placed at the end of a small (100-300 μm) Teflon tube. Silver/silver chloride electrodes connected the aqueous components bounding the membrane to a voltage clamp. Ion-channel currents through the membrane were recorded by an Axopatch amplifier (Axon Instruments, Sunnyvale, Calif.). Data were filtered at 1 kHz and stored on VHS tape. Membrane capacitance and resistance were monitored continuously to ensure the formation and stability of reproducible membranes and the proper membrane thickness. […] Peptide samples were introduced by perfusing the aqueous solution bounding one side of the membrane.
molecule,measurement,value
B1,induction of single-channel ion currents / conductances,Current jumps corresponding to the opening or closing of individual ion channels can be observed
